Measurements reported in patent publication US8357523B2, “Beta-glucosidase variant enzymes and related polynucleotides” (Codexis, Inc., priority 2009, dated 2013).
Numbering of substitutions follows the chain as printed.

B1: Variant No. 5 (protein)
chain: STAIAQEGAAPAAILHPEKWPRPATQRLIDPAVEKRVDALLKQLSVEEKVGQVIQGDIGTITPEDLRKYPLGSILAGGNSGPNGDDRAPPKEWLDLADAFYRVSLEKRPGHTPIPVLFGIDAVHGHGNIGSATIFPHNIALGATRDPELLRRIGEVTAVEMAATGIDWTFAPALSVVRDDRWGRTYEGFSEDPEIVAAYSAAIVEGVQGKFGSKDFMAPGRIVASAKHFLADGGTDQGRDQGDARISEDELIRIHNAGYPPAIDAGVLTVMASFSSWQGIKHHGHKQLLTDVLKGQMGFNGFIVGDWNAHDQVPGCTKFNCPTSLIAGLDMYMAADSWKQLYENTLAQVKDGTIPMARLDDAVRRILRVKVLAGLFEKPAPKDRPGLPGLETLGSPEHRAVGREAVRKSLVLLKNDKGTLPLSPKARVLVAGDGADNIGKQSGGWTISWQGTGNRNDEFPGATSILGGIRDAVADAGGSVEFDVAGQYKTKPDVAIVVFGEEPYAEFQGDVETLEYQPDQKQDLALLKKLKDQGIPVVAVFLSGRPMWVNPELNASDAFVAAWLPGTEGGGVADVLFTDKAGKVQHDFAGKLSYSWPRTAAQTTVNRGDADYNPLFAYGYGLTYKDKSKVGTLPEESGVPAEARQNAGIYFRAGALRLPGRFL
B2: Variant No. 94 (protein)
chain: B1 chain with N79D, A143M, V159E, A198S, F211Y
B3: 416 (protein)
chain: SAAITQEGAAPAAMLHPEKWPRPATQRLIDPAVEKRVDALLKQLSVEEKVGQVIQGDIGTITPEDLRKYPLGSILAGGDSGPNGDDRAPPKEWLDLADAFYRVSLEKRDGHTPIPVLFGIDAVHGHNNIGSATIFPHNIALGMTRDPELLRRIGEVTAEEMAATGIDWTFAPALSVPRDDRWGRTYEGFSEDPEIVASYSAAIVEGFQGKYGSKDFMAPGRAVACAKHFLADGGTDQGRDQGDARISEDELIRIHNAGYPPAIDAGVLTVMASFSSWQGIKHHGHKQLLTDVLKGQMGFNGFIVGDWNAHDQVPGCTKFNCPTSLIAGLDMYMAADSWKQLYENTLAQVKEGTIPMARLDDAVRRILRVKVLAGLFEKPAPKDRPGLPGLETLGSPEHRAVGREAVRKSLVLLKNDKGTLPLSPKARVLVAGDGADNIGKQSGGWTISWQGTGNRNDEFPGATSILGGIRDAVADAGGSVEFDVAGQYKTKPDVAIVVFGEEPYAEFRGDVETLEYQPDQKQDLTLLKKLKDQGIPVVAVFLSGRPMWVNPELNASDAFVAAWLPGTEGGGVADVLFTDKAGKVQYDFAGKLSYSWPRTAAQTTVNRGDADYNPLFAYGYGLTYKDKSKVGTLPEESGVPAEARQNAGIYFRAGALRLPGRFL
modifications: truncated; signal peptide F-10T
B4: 421 (protein)
chain: B3 chain with E351D, A400T, E502N
modifications: truncated; signal peptide F-10T
B5: 425 (protein)
chain: B3 chain with A3R, D109P, P147T, E351D, A400T, E502N, Y586H
modifications: truncated; signal peptide F-10T
B6: 418 (protein)
chain: B3 chain with A3R, A13P, D109P, P177V, I203Y, E351D, A400T, Y586H
modifications: truncated; signal peptide F-10T, N-5H
B7: 417 (protein)
chain: B3 chain with D109P, E351D, R508Q, Y586H
modifications: truncated; signal peptide F-10T
B8: 424 (protein)
chain: B3 chain with A13P, D109P, V204I, D291G, E351D, Y586H
modifications: truncated; signal peptide F-10T
B9: 419 (protein)
chain: B3 chain with A3R, P147T, E351D
modifications: truncated; signal peptide F-10T
B10: 427 (protein)
chain: B3 chain with D109P, N128H, E351D, E502N
modifications: truncated; signal peptide F-10T
B11: 423 (protein)
chain: B3 chain with E351D, A400T, Y586H
modifications: truncated; signal peptide F-10T
B12: 422 (protein)
chain: B3 chain with A13P, D109P, P147T, E351D, A400T, E502N, R508Q, Y586H
modifications: truncated; signal peptide F-10T
B13: 426 (protein)
chain: B3 chain with D109P, E351D, A400T, Y586H
modifications: truncated; signal peptide F-10T

What was measured:
[1] = High throughput cellobiose assay: fold improvement in cellobiase activity of CelA variants over a control enzyme (Tables 2A-2D, 3, 5, 6, 7); format: biochemical; settings: for activity (e.g., thermoactivity) over the wildtype A. irakense β-glucosidase: assay of Example 7; for Fold Improvement over Control Variant: 3.3 g/l cellobiose, 65° C. and pH 5 (incubation overnight), relative to Control #5, Variant No. 366 (SEQ ID NO: 9)
[2] = Enzyme stability: residual activity on pNPG after pre-incubation at high temperature and low pH; format: biochemical; settings: residual activity on pNPG at pH 7, 30° C.; for % residual activity after 10 mins @ pH 5.5, 55° C.: pre-incubation 10 mins at pH 5.5, 55° C.; for % residual activity after 10 mins @ pH 5.5, 55° C. / % residual activity after 6 hours @ pH 5.5, 55° C.: 1 hr; for % residual activity after 1 hour @ pH 5.5, 55° C.: pre-incubation 1 hour at pH 5.5, 55° C.; for % residual activity after 6 hours @ pH 5.5, 55° C.: pre-incubation 6 hours at pH 5.5, 55° C.
Procedure: Residual activity is determined by exposing the enzyme to stress conditions of elevated temperature for a period of time and then determining the β-glucosidase activity. The β-glucosidase activity of the enzyme exposed to stress conditions (“a”) is compared to that of a control in which the enzyme is not exposed to the stress conditions (“b”), and residual activity is equal to the ratio a/b. Exemplary conditions for determining thermostability are provided in Examples 9 and 13. In one embodiment the enzymes are exposed to stress conditions of 50° C. at pH 5.5 or 55° C. at pH 5.0 or 55° C. at pH 5.5, or 65° C. at pH 5.0 for about 1 hour, and assayed at 30° C., pH 7, for about 0.1 hour.
A colorimetric pNPG (p-nitrophenyl-(β-D-glucopyranoside)-based assay was used for measuring β-glucosidase activity. In a total volume of 100 μL, 20 μL clear media supernatant containing β-glucosidase enzyme was added to 4 mM pNPG (Sigma-Aldrich, Inc. St. Louis, Mo.) solution in 50 mM sodium phosphate buffer at pH6.5. The reactions were incubated at pH 6.5, 45° C. for 1 hour. The reaction mixture was quenched with 100 μL of 1M sodium carbonate pH 11 solution. The absorbance of the solution was measured at 405 nm to determine the conversion of pNPG to p-nitrophenol. The release of p-nitrophenol (ε=17,700 M−1 cm−1) was measured at 405 nm to calculate β-glucosidase activity. Detectable β-glucosidase activity was observed under high throughput screening conditions (pH 7, 50° C.).
Four CelA variants and wildtype CelA were characterized to determine their stabilities at high temperature (55° C.) and low pH (pH5.5) using the method of Example 5A. The samples containing various CelA variant enzymes were pre-incubated at pH 5.5, 55° C. for 0-6 hrs. The residual enzyme activity after the thermal challenge was measured using pNPG as substrate at pH 7, 30° C. for 1 hr. […] The mutations listed in the table are indicated relative to SEQ ID NO: 4, the wildtype CelA. These sequences included residues GTS prior to the N-terminus of SEQ ID NO: 4 (prepared as described in Example 1). […]

Row | Molecule | Fold Improvement over Control Variant [1] | further results
1 | B1 |  | activity (e.g., thermoactivity) over the wildtype A. irakense β-glucosidase [1]: improved activity; % residual activity after 10 mins @ pH 5.5, 55° C. [2]: 0%; % residual activity after 1 hour @ pH 5.5, 55° C. [2]: 0%; % residual activity after 6 hours @ pH 5.5, 55° C. [2]: 0%
2 | B2 |  | activity (e.g., thermoactivity) over the wildtype A. irakense β-glucosidase [1]: improved activity; % residual activity after 10 mins @ pH 5.5, 55° C. [2]: 3%; % residual activity after 1 hour @ pH 5.5, 55° C. [2]: 0%; % residual activity after 6 hours @ pH 5.5, 55° C. [2]: 0%
3 | B3 | ++ (++ = 1.1 to 2.0 fold improvement over control Variant No. 366) | 
4 | B4 | ++ (++ = 1.1 to 2.0 fold improvement over control Variant No. 366) | 
5 | B5 | +++ (+++ = 2.1 to 3.0 fold improvement over control Variant No. 366) | 
6 | B6 | ++ (++ = 1.1 to 2.0 fold improvement over control Variant No. 366) | 
7 | B7 | ++ (++ = 1.1 to 2.0 fold improvement over control Variant No. 366) | 
8 | B8 | ++ (++ = 1.1 to 2.0 fold improvement over control Variant No. 366) | 
9 | B9 | ++ (++ = 1.1 to 2.0 fold improvement over control Variant No. 366) | 
10 | B10 | ++ (++ = 1.1 to 2.0 fold improvement over control Variant No. 366) | 
11 | B11 | ++ (++ = 1.1 to 2.0 fold improvement over control Variant No. 366) | 
12 | B12 | +++ (+++ = 2.1 to 3.0 fold improvement over control Variant No. 366) | 
13 | B13 | ++ (++ = 1.1 to 2.0 fold improvement over control Variant No. 366) | 
